Experiment [1] concerns the target T1, human CCR8 (human, UniProt P51685 1-355).
T1 construct: whole, on cells; construct used for the overexpressing cell lines is not described; also called hCCR8
Kind of experiment: FACS competition on HEK293-hCCR8 cells against a biotin-labelled anti-CCR8 antibody at its EC80; the labelled antibody of this panel is not named on the sheet. On the procedure:
(§1) The antibody was conjugated with Sulfo-NHS-LC-Biotin at a molar ratio of 5:1 (1 mol antibody was added to 5 mol Sulfo-NHS-LC-Biotin) with reference to the product instructions (ThermoFisher, Cat No. A39257) and incubated on ice for 2 h. The coupled antibody was purified with a Zeba desalting column (ThermoFisher, Cat No. 89882). Cells overexpressing human CCR8, HEK293-hCCR8, were added to a V-bottom 96-well plate at a density of 1E5 cells/well and centrifuged at 300 g for 5 min, and the supernatant was discarded. The competitive antibody was serially diluted in a ratio of 1:10 from 200 nM to obtain 8 concentration points. The Biotin-antibody and the competition antibody were mixed in a 1:1 ratio on an HEK293 cell line overexpressing human CCR8 by the binding EC₈₀ concentration. The cells in the 96-well plate were resuspended and incubated at 4° C. for 1 h. The plate was washed twice with DPBS at 200 μL/well. The secondary antibody diluted in a 1:1000 ratio was added at 100 μL/well, and the mixture was incubated at 4° C. for 40 min. The plate was washed twice with DPBS at 200 μL/well. Finally, DPBS was […] at 200 μL/well to suspend the cells, and the mixture was loaded on an FACS machine for analysis.

Experiment [2] concerns the target T1, human CCR8. The experiment is described as follows: cell-based or functional assay.
The target in experiment [3] is T1, human CCR8. Kind of experiment: FACS, HEK293-hCCR8 cells. Put shortly:
(§2)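 Binding was measured on intact cells by two-step staining at 4 °C. Test antibodies were applied from 200 nM in 5-fold steps for 1 h, and a secondary reagent at 1:1000 for 40 min, before analysis on a FACS instrument.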

Experiment [4] has as its target T2, cynomolgus monkey CCR8 (cynomolgus monkey, UniProt G7NYJ2 1-355).
T2 construct: whole, on cells; also called CynoCCR8
Kind of experiment: FACS, CHO-K1-CynoCCR8 cells. In a few lines:
(§3)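 Anti-CCR8 antibodies titrated in 5-fold steps from 200 nM onto 1E6 cells/mL CHO-K1-CynoCCR8 in DPBS/2% FBS, 1 h at 4 °C. Bound antibody detected with 1:1000 secondary antibody, 40 min at 4 °C, then flow cytometry.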

Experiment [5] addresses T1, human CCR8. The experiment is described as follows: FACS competition on HEK293-hCCR8 cells against a biotin-labelled anti-CCR8 antibody at its EC80; the labelled antibody of this panel is not named on the sheet. Here is the method:
as §1
The source holds these as a separate data set.

Experiment [6] addresses T1, human CCR8. The experiment is described as above. Here is the method: as §1
The source holds these as a separate data set.

Experiment [7] addresses T2, cynomolgus monkey CCR8. The experiment is described as follows: FACS, CHO-K1-CynoCCR8 cells. Put shortly:
as §3
The source holds these as a separate data set.

For experiment [8], the target named is T1, human CCR8. Kind of experiment: FACS competition on HEK293-hCCR8 cells against a biotin-labelled anti-CCR8 antibody at its EC80; the labelled antibody of this panel is not named on the sheet. Here is the method:
as §1
This is another data set of the same source.

Experiment [9] deals with T1, human CCR8. Kind of experiment: FACS on HEK293 cells overexpressing human CCR8. Here is the method:
Cells overexpressing human CCR8 were digested with pancreatin, counted and resuspended to a cell density of 1E6 cells/mL. The cell suspension was added to a 96-well V-bottom plate at 100 μL/well and centrifuged at 300 g for 5 min, and the supernatant was discarded. The anti-CCR8 antibodies provided herein was used as a primary antibody and diluted in a 5-fold gradient with an FACS buffer (DPBS containing 2% FBS) from 200 nM. The diluted primary antibody was added at 100 μL/well to resuspend the cells, and the mixture was incubated at 4° C. for 1 h. The plate was washed twice with DPBS and centrifuged at 300×g for 5 min, and the supernatant was discarded. The secondary antibody diluted in a 1:1000 ratio with an FACS buffer was added at 100 μL/well to suspend the cells, and the mixture was incubated at 4° C. for 40 min. The plate was washed twice with DPBS and centrifuged at 300×g for 5 min, and the supernatant was discarded. DPBS was added at 200 μL/well to suspend the cells, and the mixture was loaded on an FACS machine for analysis.

In experiment [10] the target is T1, human CCR8. The experiment is described as follows: FACS, Baf3-hCCR8 cells. In a few lines: as §2
The target of experiment [11] is T1, human CCR8. The experiment is described as follows: FACS, CHO-K1-hCCR8 cells. In a few lines:
as §2

Experiment [12] has as its target T1, human CCR8. Kind of experiment: FACS, HEK293-hCCR8 cells. In a few lines:
as §2
The source holds these as a separate data set.

For experiment [13], the target named is T1, human CCR8. Kind of experiment: FACS competition on HEK293-hCCR8 cells against a biotin-labelled anti-CCR8 antibody at its EC80; the labelled antibody of this panel is not named on the sheet. Here is the method:
as §1
This is another data set of the same source.

Read-outs that look alike come from different tables or passages of the source.

T1 sequence (P51685 whole entry): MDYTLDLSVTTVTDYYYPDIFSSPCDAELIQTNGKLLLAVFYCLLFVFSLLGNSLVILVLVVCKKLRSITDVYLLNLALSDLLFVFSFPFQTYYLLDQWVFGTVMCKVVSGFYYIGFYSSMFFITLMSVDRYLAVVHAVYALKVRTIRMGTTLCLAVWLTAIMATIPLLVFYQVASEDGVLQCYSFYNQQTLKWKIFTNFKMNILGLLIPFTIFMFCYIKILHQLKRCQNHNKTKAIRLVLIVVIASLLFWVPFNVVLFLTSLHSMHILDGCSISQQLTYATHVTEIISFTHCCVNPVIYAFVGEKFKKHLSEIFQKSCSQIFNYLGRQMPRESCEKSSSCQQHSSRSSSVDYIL
T2 sequence (G7NYJ2 entry or part of it): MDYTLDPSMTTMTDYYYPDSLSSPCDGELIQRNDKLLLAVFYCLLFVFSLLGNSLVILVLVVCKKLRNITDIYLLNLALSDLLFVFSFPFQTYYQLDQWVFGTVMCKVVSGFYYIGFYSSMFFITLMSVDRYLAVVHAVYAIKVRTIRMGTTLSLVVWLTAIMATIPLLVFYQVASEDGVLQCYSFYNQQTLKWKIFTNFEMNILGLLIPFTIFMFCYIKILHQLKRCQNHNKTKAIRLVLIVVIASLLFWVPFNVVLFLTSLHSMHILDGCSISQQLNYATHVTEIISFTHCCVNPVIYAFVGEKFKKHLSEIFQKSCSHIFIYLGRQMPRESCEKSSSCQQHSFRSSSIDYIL

B1: PR004122 (antibody, human IgG1, kappa)
heavy: not shown
light: DIVMTQAAPSVPVTPGESVSISCRSSKSLLHSNGNTYLYWFLQRPGQSPQLLIYRMSNLASGVPDRFSGSGSGTAFTLRISRVEAEDVGVYYCMQHLEYPLTFGAGTKLELKRTVAAPSVFIFPPSDEQLKSGTASVVCLLNNFYPREAKVQWKVDNALQSGNSQESVTEQDSKDSTYSLSSTLTLSKADYEKHKVYACEVTHQGLSSPVTKSFNRGEC
notes: chimeric, human IgG1 constant region
For the molecule B1, the “IC50 (read off the curve)” value is 1 to 2 nM with human CCR8 [1]; approximately 2 nM with human CCR8 [5]; approximately 2 nM with human CCR8 [6]; approximately 3 nM with human CCR8 [8]; approximately 2 nM in the experiment with human CCR8 [13]. The “Bottom %, blocking of CCL1-stimulated calcium flux” value with human CCR8 [2] stood at 12%. In the experiment with human CCR8 [2], the “IC50(nM), blocking of CCL1-stimulated calcium flux” value worked out at 1.47 nM. The EC50 with human CCR8 [3] was determined as 0.99 nM; with cynomolgus monkey CCR8 [4], 1.06 nM; with cynomolgus monkey CCR8 [7], 2.83 nM; with human CCR8 [10], 0.17 nM; with human CCR8 [11], 0.5 nM; in the experiment with human CCR8 [12], 0.66 nM. Further, in the experiment with human CCR8 [9], the 50% effective concentration (EC50 (read off the curve)) is approximately 1 nM.

(Values after patent US20240132603A1 (HARBOUR BIOMED US, published 2024).)
